From patent publication US6641818
pKd: −log10 of the molar value.

Key:
HveC(143t) (human) [1] = target: HveC(143t) (human) (UniProt Q15223); experiment: silver-stained PAGE of the complex fraction against standards
HveC(143t) (human) [2] = target: HveC(143t) (human) (UniProt Q15223); experiment: SPR (Biacore X), HveC(143t) amine-coupled to the chip, gD in flow, 1:1 Langmuir global fit
HveC(245t) (human) = HveC(245t) (human) (UniProt Q15223); experiment: gel filtration, from the size of the complex
HveC(346t) (human) [3] = target: HveC(346t) (human) (UniProt Q15223); experiment: gel filtration, from the size of the complex
HveC(143t) (human) [4] = target: HveC(143t) (human) (UniProt Q15223); experiment: gel filtration, from the size of the complex
HveC(346t) (human) [5] = target: HveC(346t) (human) (UniProt Q15223); experiment: SPR (Biacore X), HveC(346t) amine-coupled to the chip, gD in flow, KD = koff/kon
HveC(346t) (human) [6] = target: HveC(346t) (human) (UniProt Q15223); experiment: SPR (Biacore X), HveC(346t) amine-coupled to the chip, gD in flow, 1:1 Langmuir global fit
HveC(346t) (human) [7] = target: HveC(346t) (human) (UniProt Q15223); experiment: SPR (Biacore X)
HveC(143t) (human) [8] = target: HveC(143t) (human) (UniProt Q15223); experiment: SPR (Biacore X), HveC(143t) amine-coupled to the chip, gD in flow, KD = koff/kon
HveC(346t) (human) [9] = target: HveC(346t) (human) (UniProt Q15223); experiment: silver-stained gel analysis of the complex formed in excess gD(285t)
HveA(200t) (human) [10] = target: HveA(200t) (human) (UniProt Q92956); experiment: ELISA, HveAt on the plate
HveC(346t) (human) [11] = target: HveC(346t) (human) (UniProt Q15223); experiment: gel filtration
HveC(346t) (human) [12] = target: HveC(346t) (human) (UniProt Q15223); experiment: gel filtration at various molar ratios
HveC(346t) (human) [13] = target: HveC(346t) (human) (UniProt Q15223); experiment: ELISA, HveCt on the plate
HveC(346t) (human) [14] = target: HveC(346t) (human) (UniProt Q15223); experiment: silver-stained SDS-PAGE of the complex fraction
HveC(346t) (human) [15] = target: HveC(346t) (human) (UniProt Q15223); experiment: ELISA, apparent affinity from half-maximal binding, HveCt on the plate
HveA(200t) (human) [16] = target: HveA(200t) (human) (UniProt Q92956); experiment: ELISA, apparent affinity from half-maximal binding, HveAt on the plate

Chain of UniProt Q92956 (Q92956 39-202): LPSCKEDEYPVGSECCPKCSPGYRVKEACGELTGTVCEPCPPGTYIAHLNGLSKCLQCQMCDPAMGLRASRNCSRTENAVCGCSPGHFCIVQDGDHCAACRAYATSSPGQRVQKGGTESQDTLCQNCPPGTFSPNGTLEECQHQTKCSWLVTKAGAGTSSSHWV

| Substance | koff (HveC(143t) (human) [2]) [s⁻¹] | kon (HveC(143t) (human) [2]) [M⁻¹ s⁻¹] | pKd (HveC(346t) (human) [5]) | koff (HveC(346t) (human) [6]) [s⁻¹] | kon (HveC(346t) (human) [6]) [M⁻¹ s⁻¹] | pKd (HveC(143t) (human) [8]) | other results |
| --- | --- | --- | --- | --- | --- | --- | --- |
| gD(285t) (ligand) | 0.013 | 370000 | 7.42 | 0.0073 | 190000 | 7.46 | ratio in the complex (HveC(143t) per gD(285t)) (HveC(143t) (human) [1]): 1; stoichiometry (gD:HveC) (HveC(245t) (human)): 1 gD per HveC; stoichiometry (gD:HveC) (HveC(346t) (human) [3]): 2 gD per HveC; stoichiometry (gD:HveC) (HveC(143t) (human) [4]): 1 gD per HveC; fold increase in affinity over gD(306t) (HveC(346t) (human) [7]): > 80 fold; ratio in the complex (HveC(346t) (human) [9]): 2 gD per HveC |
| gD-1(A290-299t) (ligand) |  |  |  |  |  |  | fold increase in binding compared to wild type gD(306t) (HveA(200t) (human) [10]): 100 fold; stoichiometry (gD:HveC) (HveC(346t) (human) [11]): 2 gD per HveC; stoichiometry (gD:HveCt) (HveC(346t) (human) [12]): 2 gD per HveCt; fold increase in binding compared to wild type gD(306t) (HveC(346t) (human) [13]): 100 fold; gD:HveCt ratio in the complex (HveC(346t) (human) [14]): 1.6 gD per HveCt |
| gD(306t)rid1 (ligand) | 0.008 | 39000 | 6.77 | 0.0047 | 27000 | 6.70 | fold increase in affinity compared to gD(306t) (HveC(346t) (human) [7]): 20 fold |
| gD-1(306t) KOS (ligand) | 0.011 | 9000 | 5.49 | 0.007 | 2200 | 5.92 | gD concentration at saturation (HveA(200t) (human) [10]): 2 to 3 µM; pKd (HveC(346t) (human) [15]): 6.00; pKd (HveA(200t) (human) [16]): 6.52; gD concentration at saturation (µM (printed RM)) (HveC(346t) (human) [13]): 10 to 20 |
